Measured values taken from paper doi:10.1101/2023.06.22.546067 (bioRxiv, 2023).
Residue numbers refer to the chain shown, from its start. Numbers in names are those of the source.

B1: phage P4 polarity suppression protein Psu, wild-type (Psu^wt), purified (natural protein)
chain: MESTALQQAFDTCQNNKAAWLQRKNELAAAEQEYLRLLSGEGRNVSRLDELRNIIEVRKWQVNQAAGRYIRSHEAVQHISIRDRLNDFMQQHGTALAAALAPELMGYSELTAIARNCAIQRATDALREALLSWLAKGEKINYSAQDSDILTTIGFRPDVASVDDSREKFTPAQNMIFSRKSAQLASRQSV
B2: Psu variant R43A (Psu^R43A), purified (natural protein)
chain: B1 chain with R43A

Experiments:
cryo-EM structure = target: the molecule itself; experiment: cryo-EM structure
[1] = target: T1, transcription termination factor ρ variant P167L (ρ^P167L), purified (E. coli, UniProt P0AG30, P167L); experiment: stopped-flow/FRET
[2] = target: T1, transcription termination factor ρ …; experiment: SEC

Binder	stoichiometry N (cryo-EM structure)	binding result [1]	binding result [2]
B1	2	binds	–
B2	–	–	binds
